# Reference: article PMC8752837, “Structural basis of BAK activation in mitochondrial apoptosis initiation” (Nature Communications, 2022)
# B1: I81R (3): BAK missense mutant (protein, UniProt Q16611 2-211, looked up, variant I81R)
# Bcl-2 homologous …: ASGQGPGPPRQECGEPALPSASEEQVAQDTEEVFRSYVFYRHQQEQEAEGVAAPADPEMVTLPLQPSSTMGQVGRQLAIRGDDINRRYDSEFQTMLQHLQPTAENAYEYFTKIATSLFESGINWGRVVALLGFGYRLALHVYQHGLTGFLGQVTRFVVDFMLHHCIARWIAQRGGWVAALNLGNGPILNVLVVLGVVLLGQFVVRRFFKS
# B2: WT BAK: C-terminus truncated recombinant human BAK with C-terminal 6× histidine tag (protein, UniProt Q16611 2-211, looked up)
# Bcl-2 homologous …: ASGQGPGPPRQECGEPALPSASEEQVAQDTEEVFRSYVFYRHQQEQEAEGVAAPADPEMVTLPLQPSSTMGQVGRQLAIIGDDINRRYDSEFQTMLQHLQPTAENAYEYFTKIATSLFESGINWGRVVALLGFGYRLALHVYQHGLTGFLGQVTRFVVDFMLHHCIARWIAQRGGWVAALNLGNGPILNVLVVLGVVLLGQFVVRRFFKS
# B3: D83A (s): BAK missense mutant, autoactivation-impaired; in cells as mCherry fusion (protein)
# chain: MASGQGPGPPRQECGEPALPSASEEQVAQDTEEVFRSYVFYRHQQEQEAEGVAAPADPEMVTLPLQPSSTMGQVGRQLAIIGADINRRYDSEFQTMLQHLQPTAENAYEYFTKIATSLFESGINWGRVVALLGFGYRLALHVYQHGLTGFLGQVTRFVVDFMLHHCIARWIAQRGGWVAALNLGNG
# modifications: left off: His6, C-terminal, kept
# notes: in cells as mCherry fusion
# Key:
# [1] = test system: BCL2allKO HCT116 cells reconstituted with Dox-inducible mC-BAK; test: Dox-induced cell death by IncuCyte imaging of SYTOX Green uptake (autoactivation); assay type: cell-based, human; details: for Dox-induced cell death: IncuCyte SYTOX Green up to 48 h; for AUC (48 hr) of SYTOX Green counts/confluence: mC-BAK BCL2allKO HCT116 + Dox + qVD, average, N = 3; for SYTOX Green +ve counts/confluence AUC of kinetic traces: Fig 3d
# From the text: For mammalian cell culture experiments, we cloned the full length human BAK cDNA into pCR 2.1 TOPO vector, mutated BAK as needed, and PCR amplified the BAK gene for cloning into the BamHI and NotI sites of pRETROX mCherry vector for retroviral transduction. Amplification and mutagenesis primers are included in Supplementary Table 4. To test direct BAK activation and BAK autoactivation in cells, we produced cells stably expressing mCherry-human BAK (mC-BAK) ± human BID (BID) on a genetic background devoid of the entire BCL-2 family repertoire (all 17 BCL-2 genes), BCL2allKO HCT116, as described by the Xu Luo laboratory. We expressed WT and mutant mC-BAK using the doxycycline (Dox)-based inducible Tet-On 3G retroviral system from the pRetroX-TRE3G-Puro^R in BCL2allKO HCT116 cells expressing the Tet3G from pRetroX-Tet3G-Blast^R. We selected cells with puromycin (2.5 µg/mL) and blasticidin (2 µg/mL) starting at 2 days after retroviral transduction. To enrich for populations of cells that express mC-BAK, we treated cells with low Dox dose (25 ng/mL) and fluorescence-activated cell sorted (FACS) the mCherry positive cells. We performed the enrichment twice before cell death analysis. One caveat of our cellular system is tagging BAK with N-terminal mCherry, which may affect folding efficiency, degradation, and BAK interactome.
# (§1) We seeded cells in 24-well (100,000 cells/well), 96-well (15,000 cells/well), or 384-well (10,000 cells/well) plates coated with 10 µg/mL fibronectin. After ≥24 h of attachment and recovery, we induced cell death with Dox (up to 1000 ng/mL) and monitored SYTOX Green (25 nM) uptake by Incucyte imaging. This dye marks cells with compromised plasma membrane integrity. mC-BAK expressed before 24 h, which coincided with detectable cell death. We monitored Incucyte imaging for up to 48 h, followed by endpoint FACS analysis to measure the extent of cell death based on SYTOX Green positive cells on FACSCalibur systems (BD Biosciences). As expected, cells with low mCherry fluorescence were refractory to cell death.
# [2] = test system: BCL2allKO HCT116 cells reconstituted with mC-BAK; test: Endpoint FACS analysis of SYTOX Green positive cells; assay type: cell-based, human; details: average, N = 3
# Experimental: as §1
# BAK [3] = test: Dye-based thermal shift assay (SYPRO Orange); assay type: physicochemical, human; details: rebuttal
# Experimental: To control for effect of mutations on protein stability, which may confound interpretation of impairment in BAK autoactivation, we measured the Tm of BAK WT and mutants (Supplementary Fig. 3f).
# (§2) We carried out TSA in 20 µL reactions in 384-well PCR plate (Cat# AB1384, Thermo Fisher Scientific) in 20 mM HEPES pH 7.0, 150 mM NaCl, 2 mM DTT), SYPRO ^TM Orange (5×) and 0.25 mg/mL purified BAK. To remove air bubbles we sealed assay plates with MicroAmp Optical Adhesive, incubated them for 2–5 min, and centrifuged them (1000 × rpm). We subjected the assay plates to 25–99 °C thermal gradient with 1°/minute increment and recorded fluorescence using Applied Biosystems Quant Studio 5. We performed three experiments in quadruplicate for each sample. We performed data processing and visualization in RISE, and final data analysis in Excel and GraphPad Prism. We also carried out dye-free TSA using capillary-based Prometheus NT.48 Nano Differential Scanning Fluorimetry (Nanotemper) in the same buffer conditions with 15 μM BAK. Melting temperature (Tm) values were obtained from the first derivative of melting scans.
# [4] = Liposome permeabilization by WT and mutant BAK proteins (autoactivation, or direct activation by BID BH3); assay type: biochemical; details: no BH3 peptide; liposomes with […] DGS-NTA(Ni); Fig. 1a
# Experimental: Human BAK-∆TM-His6 (BAK)[26] spontaneously permeabilizes liposomes above a certain dose (>100 nM, Fig. 1a). In these dye-release assays[43]–[46], BAK is recruited via His-tag to liposomes containing 2.5 µM of the lipid 1,2-dioleoyl-sn-glycero-3-[(N-(5-amino-1-carboxypentyl)iminodiacetic acid)succinyl] (nickel salt), DGS-NTA(Ni).
# To probe autoactivation with full-length BAK, we mutated hydrophobic residues at positions (0)−(6) of the BH3 to alanine or arginine, and D83, which forms the conserved salt bridge (s) with R127, to alanine (Fig. 2a). The BH3 residues participate in autoactivation from the ligand side [hydrophobic positions (0)–(5) and D83(s)] and also from the receptor groove side [hydrophobic positions (3)–(5)] (Fig. 2a). Thus, substitutions at positions (3)–(5) should affect receptor and ligand activities and are predicted to impact BAK activation more severely than mutations of positions (0)–(2), which affect only ligand activity. […] In contrast, almost all (2)–(5) and (s) missense mutants were considerably impaired in autoactivation (Fig. 2b and Supplementary Fig. 3a). […] Despite impairment in autoactivation, all missense mutants were directly activated by BID BH3 peptide, although they induced lower level of permeabilization compared to WT BAK (Fig. 2b and Supplementary Fig. 3a).
# We performed liposome permeabilization assays as previously described[43]–[46]. […] (nickel salt) [DGS NTA(Ni), 2.5 μM final concentration in each assay] (Avanti Polar Lipids). We prepared 12.5 mM fluorophore; 8-aminonaphthalene-1, 3, 6-trisulfonic acid, disodium salt (ANTS) and 45 mM quencher; p-xylene-bis-pyridiniumbromide (DPX) in LUV buffer (10 mM HEPES pH 6.8, 200 mM KCl and 5 mM MgCl2). We mixed the lipid film in ANTS/DPX solution by vortexing and sonication (~15 min) followed by extrusion through polycarbonate membrane of 2 μm pore size (Avanti Polar lipids) to generate homogenous large unilamellar vesicles (LUVs). We separated LUVs from free ANTS/DPX by S500 size exclusion chromatography and stored them at 4 °C in the dark. We prepared peptide and protein dilutions in 96-well black flat bottom plates (Costar) kept on ice. ANTS release from permeabilized liposomes causes an increase in fluorescence, which we monitored at 37 °C for 90 min using a CLARIOSTAR microplate reader (BMG Labtech) set at excitation and emission wavelengths of 360 and 530 nm, respectively. We normalized the data relative to maximum and minimum fluorescence induced by 3% CHAPS and buffer controls, respectively. We quantified liposome permabilization by integrating area under curve (AUC) of normalized traces based on the Simpson’s equation, and analyzed that data in Excel and GraphPad Prism. AUC measurements reflect the kinetic and extent of liposome permeabilization and provide quantitative means for comparison between different experimental conditions (e.g., BAK mutants with gross or partial variation in activity). Variability in permeabilization of different liposomes is common and our analyses compare among conditions investigated with the same liposomes. Although the absolute permeabilization values may differ, the trends for the same conditions are always very similar between different liposomes.
# BAK [5] = test: Dye-free nano Differential Scanning Fluorimetry thermal shift assay; assay type: physicochemical, human; details: without DTT; mean of N = 3; Suppl. Fig. 7h
# Experimental: Through rational design and structural analysis, we expand the list of activated BAK complexes, supporting requisite BH3 ligand-induced destabilization of helix α1 (see below).
# as §2
# [6] = test system: BCL2allKO HCT116 cells expressing mC-BAK and BID; test: Dox + TRAIL + CHX induced cell death by IncuCyte imaging of SYTOX Green uptake (direct activation); assay type: cell-based, human; details: TRAIL 200 ng/mL + CHX 0.5 µg/mL added at 6 h
# Experimental: We achieved stable, constitutive expression of human BID in mC-BAK expressing BCL2allKO HCT116 by retroviral transduction based on pMX-human-BID-IRES-GFP. Amplification primers are included in Supplementary Table 4. We performed two rounds of FACS sorting gating on GFP-positive cells to enrich for populations of cells that express BID.
# For coexpression of mC-BAK + BID, we treated cells with different doses of Dox for 24 h to induce expression of mC-BAK. At 6 h, we treated cells with TRAIL (200 ng/mL) + cycloheximide (CHX, 0.5 µg/mL) to promote BID activation under conditions of protein synthesis inhibition by CHX, and continued to record Incucyte imaging of SYTOX Green uptake up to 48 h. We blocked caspase activity with qVD (40 µM).
molecule,measurement,setting,value
B1,Dox-induced cell death,[1],inactive irrespective of Dox dose
same,AUC (48 hr) of SYTOX Green counts/confluence,[1]; Dox 100 ng/mL,331.061
same,AUC (48 hr) of SYTOX Green counts/confluence,[1]; Dox 1000 ng/mL,348.847
same,flow cytometry SYTOX Green counts/confluence (48 hr),[2]; Dox 100 ng/mL,2.517
same,flow cytometry SYTOX Green counts/confluence (48 hr),[2]; Dox 1000 ng/mL,4.75
same,difference in Tm compared to WT,BAK [3],< 2 °C
B2,BAK dose above which liposomes are spontaneously permeabilized,[4],> 100 nM
same,"Melting temperature for 3 exps, Mean",BAK [5],77 °C
B3,cell death with Dox + TRAIL + CHX compared to Dox alone,[6],boosted the levels of cell death
same,SYTOX Green +ve counts/confluence AUC of kinetic traces,[1]; Dox 6.25 ng/mL,251.48
same,SYTOX Green +ve counts/confluence AUC of kinetic traces,[1]; Dox 6.25 ng/mL + qVD,178.809
same,SYTOX Green +ve counts/confluence AUC of kinetic traces,[1]; Dox 12.5 ng/mL,298.87
same,SYTOX Green +ve counts/confluence AUC of kinetic traces,[1]; Dox 12.5 ng/mL + qVD,216.467
same,SYTOX Green +ve counts/confluence AUC of kinetic traces,[1]; Dox 25 ng/mL,546.446
same,SYTOX Green +ve counts/confluence AUC of kinetic traces,[1]; Dox 25 ng/mL + qVD,167.305
same,SYTOX Green +ve counts/confluence AUC of kinetic traces,[1]; Dox 50 ng/mL,973.937
same,SYTOX Green +ve counts/confluence AUC of kinetic traces,[1]; Dox 50 ng/mL + qVD,180.875
same,SYTOX Green +ve counts/confluence AUC of kinetic traces,[1]; Dox 100 ng/mL,1429.67
same,SYTOX Green +ve counts/confluence AUC of kinetic traces,[1]; Dox 100 ng/mL + qVD,197.929
same,SYTOX Green +ve counts/confluence AUC of kinetic traces,[1]; Dox 500 ng/mL,1807.16
same,SYTOX Green +ve counts/confluence AUC of kinetic traces,[1]; Dox 500 ng/mL + qVD,226.028
same,SYTOX Green +ve counts/confluence AUC of kinetic traces,[1]; Dox 1000 ng/mL,2018.82
same,SYTOX Green +ve counts/confluence AUC of kinetic traces,[1]; Dox 1000 ng/mL + qVD,223.673
same,Dox-induced cell death,[1],consistently less potent at inducing apoptosis than V74A(1)
same,AUC (48 hr) of SYTOX Green counts/confluence,[1]; Dox 100 ng/mL,54126.6
same,AUC (48 hr) of SYTOX Green counts/confluence,[1]; Dox 1000 ng/mL,77700.1
same,fold higher expression level for similar cell death compared to V74A,"[1]; mC-BAK/actin immunoblot, Fig. 3d",~ 10 fold
same,flow cytometry SYTOX Green counts/confluence (48 hr),[2]; Dox 100 ng/mL,35.2333
same,flow cytometry SYTOX Green counts/confluence (48 hr),[2]; Dox 1000 ng/mL,43.7667
